The record followed here is publication PMC9227038, “Characterization of Four Medically Important Toxins from Centruroides huichol Scorpion Venom and Its Neutralization by a Single Recombinant Antibody Fragment” (Toxins, 2022).

As a reminder, the Kd is the concentration at which binding is half-saturated. Higher therefore signals a looser complex. The term koff denotes a measure of how fast the partners let go of each other. High values mean fast dissociation, low ones slow dissociation. As a reminder, the kon is a measure of how fast the partners come together. Low readings indicate slow association, high ones fast association.

Positions count from the first letter of the chain named.

Common to all, as to experiment: SPR
Common to all, as to conditions: both partners purified

Experiment [1] has as its target T1, Chui3 toxin (Centruroides huichol, UniProt C0HM16).
T1 construct: also called Chui3/Cn3; FII.9-3

For experiment [2], the target named is T2, Chui4 toxin (Centruroides huichol, UniProt C0HM17).
T2 construct: also called FII.10-1
T2 sequence (C0HM17 whole entry): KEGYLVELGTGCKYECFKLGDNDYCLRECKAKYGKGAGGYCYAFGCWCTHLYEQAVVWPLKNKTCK

Experiment [3] addresses T3, Chui2 toxin (Centruroides huichol, UniProt C0HM15).
T3 construct: also called FII.9-2

Experiment [4] deals with T4, Chui5 toxin (Centruroides huichol, UniProt C0HM18).
T4 construct: also called FII.12-1
T4 sequence (C0HM18 whole entry): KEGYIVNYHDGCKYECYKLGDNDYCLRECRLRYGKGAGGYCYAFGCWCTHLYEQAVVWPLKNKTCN

The target of experiment [5] is T4, Chui5 toxin. This is another data set of the same source.
The target of experiment [6] is T4, Chui5 toxin. The source holds these as a separate data set.
Experiment [7] deals with T4, Chui5 toxin. This is another data set of the same source.
Experiment [8] deals with T1, Chui3 toxin. The source holds these as a separate data set.
Experiment [9] deals with T2, Chui4 toxin. This is another data set of the same source.
In experiment [10] the target is T3, Chui2 toxin. The source holds these as a separate data set.

T3 sequence (C0HM15 whole entry): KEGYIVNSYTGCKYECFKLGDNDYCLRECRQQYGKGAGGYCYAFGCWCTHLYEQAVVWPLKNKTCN
T1 sequence (C0HM16 whole entry): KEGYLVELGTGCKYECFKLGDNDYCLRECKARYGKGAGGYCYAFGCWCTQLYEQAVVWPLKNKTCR

B1: scFv 10FG2 (scFv, V domains shown)
VH: QVNLRESGGGLVQPGGSLRLSCAASGFSFGSYGMHWVRQAPGKGLEWVAVISYGGGSKYYADSVKGRFTISRDNSKNTLYLQMNSLRAEDTAVYYCAKDARDCLLCSDWTFDLWGRGTLVTVSS
VL: NFMLTQPHSASGTPGQRVTISCSGSSSNIGSNTVNWYRHLPGSAPELLIGSHNQRPSGVPDRFSGSKSGTSASLAISGLQSEDEADYYCAAWDDSTLGYVFGTGTKLTVL
notes: source: E. coli TG1 (pSyn1), purified (Ni2+-NTA, Superdex 75 SEC)
As for B1, in [1], the equilibrium dissociation constant (Kd) was 1.8 nM, the “TR (residence time)” value came out at 53.1 min, the dissociation rate constant (koff) came to 0.00031 s⁻¹ and the kon came to 180000 M⁻¹ s⁻¹. Further, in experiment [2], the Kd was 0.3 nM, the “TR (residence time)” value came out at 242 min, the off-rate (koff) amounted to 7e-05 s⁻¹ and the kon was 210000 M⁻¹ s⁻¹. Besides, in experiment [3], the affinity, expressed as Kd, was 1.1 nM; the “TR (residence time)” value is 60.4 min; the koff stood at 0.00028 s⁻¹; the on-rate constant (kon) turned out to be 280000 M⁻¹ s⁻¹.

B2: scFv B15a (scFv, V domains shown)
VH: B1 VH with K65Q, L105Q
VL: B1 VL
notes: also called B15a variant; source: E. coli TG1 (pSyn1), purified (Ni2+-NTA, Superdex 75 SEC)
B2 yielded a dH in experiment [4] of -2.6 kcal/mol. Also, in [5], the Kd stood at 7.3 nM, the off-rate constant (koff) stood at 0.00097 s⁻¹ and the kon is 130000 M⁻¹ s⁻¹.

B3: scFv 9a (scFv, V domains shown)
VH: B1 VH with L105Q
VL: B1 VL
notes: also called variant 9a; clone 9a
In [5], B3 showed a dissociation constant (Kd) of 8.2 nM, an off-rate constant (koff) of 0.00119 s⁻¹ and an on-rate (kon) of 150000 M⁻¹ s⁻¹.

B4: scFv HV (scFv, V domains shown)
VH: B1 VH with F29Y, K65Q, L105G
VL: B1 VL with G15E
notes: also called HV variant
In the case of B4, the dH in experiment [4] is -1.6 kcal/mol. In experiment [6], the Kd is 6.9 nM, the “TR (residence time)” value was 15.5 min, the off-rate (koff) is 0.00108 s⁻¹ and the on-rate (kon) turned out to be 160000 M⁻¹ s⁻¹. In [1], the Kd was 3.8 nM, the “TR (residence time)” value was 48.8 min, the koff was 0.00034 s⁻¹ and the kon was 90000 M⁻¹ s⁻¹. Moreover, in [2], binding was characterised by a dissociation constant (Kd) of 0.9 nM, the “TR (residence time)” value came out at 105 min, the off-rate (koff) came to 0.00016 s⁻¹ and the kon is 180000 M⁻¹ s⁻¹. Moreover, in [3], binding was characterised by a dissociation constant (Kd) of 3.1 nM, the “TR (residence time)” value is 34.2 min, the koff worked out at 0.00049 s⁻¹ and the on-rate constant (kon) is 160000 M⁻¹ s⁻¹.

B5: scFv LR (scFv, V domains shown)
VH: EVQLVESGGGLVQPGGSLRLSCTGSGFTFDNYAMHWLRQVPGEGLEWVSGISRSSGDIDYADSVKGRFTISRDDAKKTLSLQMNSLRAEDTAVYYCARGGFGSFDTWGQGTMVTVSS
VL: EIVLTQSPATLSVSPGERATLSCRASQSVRSYLAWYQQKPGQAPRLLFSDASNRATGIPARFTGSGSGTDFTLTISSLEPEDFAIYYCQQYRYSPRTFGQGTKVEIK
On to B5, for which the binding result is “no binding (tested: 25 nM)” in experiment [7], “binds” in [8], “binds” in experiment [9] and “binds” in experiment [10].
